Here are results for 2 substances from paper PMC13061240.

For orientation: stoichiometry N means a count of units in the complex or per binding partner.

Assay [1] concerns the target bottlenose dolphin coronavirus (BdCoV) spike (S) glycoprotein ectodomain (23-1370), 2P, GCN4 trimeri (bottlenose dolphin coronavirus (BdCoV)). The assay can be described thus: cryo-EM structure.
The target in assay [2] is beluga whale coronavirus (BwCoV) spike (S) glycoprotein ectodomain, 2P, GCN4 trimerization motif, Strep-tag (beluga whale coronavirus (BwCoV)). The assay can be described thus: cryo-EM structure.

“bottlenose dolphin coronavirus (BdCoV) spike (S) glycoprotein ectodomain (23-1370), 2P, GCN4 trimeri (domain or fragment)” showed a stoichiometry N in assay [1] of 3.

As to “beluga whale coronavirus (BwCoV) spike (S) glycoprotein ectodomain, 2P, GCN4 trimerization motif, Strep-tag (domain or fragment)”, in assay [2], the stoichiometry N came out at 3.
